T1: mouse programmed cell death protein 1 C60S (aa 25-167) Fc fusion protein, Q02242
T1 chain: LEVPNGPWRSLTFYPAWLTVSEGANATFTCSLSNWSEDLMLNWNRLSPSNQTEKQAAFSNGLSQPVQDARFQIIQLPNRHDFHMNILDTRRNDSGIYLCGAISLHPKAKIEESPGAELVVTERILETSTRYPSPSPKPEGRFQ

B1: toripalimab Fab (wild-type) L:L101A (protein)
chain 1: QGQLVQSGAEVKKPGASVKVSCKASGYTFTDYEMHWVRQAPIHGLEWIGVIESETGGTAYNQKFKGRVTITADKSTSTAYMELSSLRSEDTAVYYCAREGITTVATTYYWYFDVWGQGTTVTVSS
chain 2: DVVMTQSPLSLPVTLGQPASISCRSSQSIVHSNGNTYLEWYLQKPGQSPQLLIYKVSNRFSGVPDRFSGSGSGTDFTLKISRVEAEDVGVYYCFQGSHVPATFGQGTKLEIK
B2: toripalimab Fab (wild-type) L:V99A (protein)
chain 1: QGQLVQSGAEVKKPGASVKVSCKASGYTFTDYEMHWVRQAPIHGLEWIGVIESETGGTAYNQKFKGRVTITADKSTSTAYMELSSLRSEDTAVYYCAREGITTVATTYYWYFDVWGQGTTVTVSS
chain 2: DVVMTQSPLSLPVTLGQPASISCRSSQSIVHSNGNTYLEWYLQKPGQSPQLLIYKVSNRFSGVPDRFSGSGSGTDFTLKISRVEAEDVGVYYCFQGSHAPLTFGQGTKLEIK
B3: toripalimab Fab (wild-type) L:P100H (protein)
chain 1: QGQLVQSGAEVKKPGASVKVSCKASGYTFTDYEMHWVRQAPIHGLEWIGVIESETGGTAYNQKFKGRVTITADKSTSTAYMELSSLRSEDTAVYYCAREGITTVATTYYWYFDVWGQGTTVTVSS
chain 2: DVVMTQSPLSLPVTLGQPASISCRSSQSIVHSNGNTYLEWYLQKPGQSPQLLIYKVSNRFSGVPDRFSGSGSGTDFTLKISRVEAEDVGVYYCFQGSHVHLTFGQGTKLEIK
B4: toripalimab Fab (wild-type) L:V99G (protein)
chain 1: QGQLVQSGAEVKKPGASVKVSCKASGYTFTDYEMHWVRQAPIHGLEWIGVIESETGGTAYNQKFKGRVTITADKSTSTAYMELSSLRSEDTAVYYCAREGITTVATTYYWYFDVWGQGTTVTVSS
chain 2: DVVMTQSPLSLPVTLGQPASISCRSSQSIVHSNGNTYLEWYLQKPGQSPQLLIYKVSNRFSGVPDRFSGSGSGTDFTLKISRVEAEDVGVYYCFQGSHGPLTFGQGTKLEIK

Tests used:
[1] = biological target: T1, mouse programmed cell death protein 1 …; assay: BreviA (SPR); conditions: chain shown with the change;, read off a plot; for Kd: parent: est. 1.2e-7 M
[2] = biological target: T2, human programmed cell death protein 1 C93S (aa 24-167), Q15116; assay: SPR; conditions: chain shown with the change; top curve (taken as 1024 nM hPD-1), read at end of association, about 570 s; antibody immobilized as ligand; parent: est. 740; read off a plot
[3] = biological target: T2, human programmed cell death protein 1 …; assay: BreviA (SPR); conditions: chain shown with the change;; parent: est. 910 pM; read off a plot

T2 sequence (Q15116 24-167 C93S): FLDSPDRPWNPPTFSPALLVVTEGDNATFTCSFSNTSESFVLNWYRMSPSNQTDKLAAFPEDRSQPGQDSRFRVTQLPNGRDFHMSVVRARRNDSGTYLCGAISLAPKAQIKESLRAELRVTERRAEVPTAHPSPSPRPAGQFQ

Binder	Kd [1] [nM]	koff ([1]; parent: est. 5.9e-3 s-1) [s⁻¹]	response [2] [RU]	Kd [3] [nM]
B1	26			
B2		0.00036		
B3	1		470	
B4			770	2

Source: PMC10663500
